Results from the supplement of paper PMC9233669.
This sample holds only a part of the variants without activity.

Tests used:
biotinyl-Met-oxazolone = experiment: self-aminoacylation, catalytic enhancement (BMO) (fold over background); higher = more active; k-Seq, kA / k0A0; sequences stand for … in GGGAAUGGAUCCACAUCUACGAAUUC…UUCACUGCAGACUUGACGAAGCUG
In short: (§1)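 The uncatalyzed rate is the low-activity peak of a bimodal Gaussian fit, and catalytic enhancement is median kA divided by it. The kA values came from pseudo-first-order fits, with 1000 bootstraps, of per-sequence fraction reacted measured by streptavidin capture, triplicate qPCR and Illumina sequencing. Mutagenized RNA pools with a 21-nt variable region (0.43 μM) were reacted with each biotinyl-aminoacyl-oxazolone at 2–1250 μM in 50 μL HEPES/NaCl/KCl/MgCl2/CaCl2 buffer with 5% acetonitrile, pH 6.9–7.0, for 90 minutes at room temperature.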

biotinyl-Trp-oxazolone = experiment: self-aminoacylation, catalytic enhancement (BWO) (fold over background); higher = more active; k-Seq, kA / k0A0; sequences stand for … in GGGAAUGGAUCCACAUCUACGAAUUC…UUCACUGCAGACUUGACGAAGCUG
In short: as §1

biotinyl-Ile-oxazolone = experiment: self-aminoacylation, catalytic enhancement (BIO) (fold over background); higher = more active; k-Seq, kA / k0A0; sequences stand for … in GGGAAUGGAUCCACAUCUACGAAUUC…UUCACUGCAGACUUGACGAAGCUG
In short: as §1

biotinyl-Val-oxazolone = experiment: self-aminoacylation, catalytic enhancement (BVO) (fold over background); higher = more active; k-Seq, kA / k0A0; sequences stand for … in GGGAAUGGAUCCACAUCUACGAAUUC…UUCACUGCAGACUUGACGAAGCUG
In short: as §1

biotinyl-Leu-oxazolone = experiment: self-aminoacylation, catalytic enhancement (BLO) (fold over background); higher = more active; k-Seq, kA / k0A0; sequences stand for … in GGGAAUGGAUCCACAUCUACGAAUUC…UUCACUGCAGACUUGACGAAGCUG
In short: as §1

biotinyl-Phe-oxazolone = experiment: self-aminoacylation, catalytic enhancement (BFO) (fold over background); higher = more active; k-Seq, kA / k0A0; sequences stand for … in GGGAAUGGAUCCACAUCUACGAAUUC…UUCACUGCAGACUUGACGAAGCUG
In short: as §1

| Sequence | self-aminoacylation (biotinyl-Met-oxazolone) | self-aminoacylation (biotinyl-Trp-oxazolone) | self-aminoacylation (biotinyl-Ile-oxazolone) | self-aminoacylation (biotinyl-Val-oxazolone) | self-aminoacylation (biotinyl-Leu-oxazolone) | self-aminoacylation (biotinyl-Phe-oxazolone) |
| --- | --- | --- | --- | --- | --- | --- |
| AAGUUUGCUAAUAGGCCCAAG [Fam3.1 aminoacylation ribozyme variant] | 0.899 | 1.2 | 1.32 | 1.23 | 0.847 | 0.737 |
| AUUCACGUAGGUCAUCUGGUG [Fam2.2 aminoacylation ribozyme variant] | 5.3 | 4.82 | 3.05 | 3.61 | 5.52 | 31.2 |
| CUACUUCAAACAUUCGGUCUG [Fam1A.1 aminoacylation ribozyme variant] | 0.904 | 0.904 | 0.994 | 1.01 | 0.892 | 0.828 |
| AUACACGUAGGUCAUCGGGUG [Fam2.2 aminoacylation ribozyme variant] | 3.63 | 3.2 | 2.19 | 2.67 | 3.2 | 17.3 |
| AUUCACCUAGGUCAUCGGGGA [Fam2.2 aminoacylation ribozyme variant] | 19.8 | 15.5 | 11.4 | 9.77 | 26 | 123 |
| AAUCACCUAGGUCAACGGGUG [Fam2.2 aminoacylation ribozyme variant] | 2.91 | 3.32 | 2.29 | 2.77 | 3.39 | 10.3 |
| CUACUUCAAAUACUCGGUCUG [Fam1A.1 aminoacylation ribozyme variant] | 0.972 | 0.71 | 0.832 | 0.84 | 0.807 | 0.622 |
| AACUUUGCUAAUAUUCGCAAG [Fam3.1 aminoacylation ribozyme variant] | 1.51 | 1.75 | 1.76 | 1.65 | 1.94 | 1.42 |
| UAGUCUGCUAAUAGUCGCAAG [Fam3.1 aminoacylation ribozyme variant] | 2.17 | 9.92 | 2.01 | 1.81 | 1.83 | 32.7 |
| AAGUUGGCUAAUCGUCGCAAG [Fam3.1 aminoacylation ribozyme variant] | 1.68 | 2.24 | 1.76 | 1.51 | 1.75 | 2.73 |
| AUUACCCUUGCCAUCGAGUGA [Fam2.1 aminoacylation ribozyme variant] | 6.18 | 7.05 | 3.09 | 3.18 | 5.63 | 35.2 |
| CCAGAAUUCAAGCAAUCGGUC [Fam1B.1 aminoacylation ribozyme variant] | 1.65 | 1.81 | 1.91 | 1.6 | 2.3 | 2.26 |
| AUUCACUUAGGUCAUGGGGUG [Fam2.2 aminoacylation ribozyme variant] | 5.58 | 5.74 | 3.61 | 3.31 | 7.09 | 46.2 |
| CUCCUUCAUACAAUCGGUCUG [Fam1A.1 aminoacylation ribozyme variant] | 0.609 | 0.794 | 0.652 | 0.664 | 0.771 | 0.839 |
| AAGUUUGCUAAGAGUCGCAAG [Fam3.1 aminoacylation ribozyme variant] | 0.755 | 1.39 | 0.748 | 0.741 | 0.661 | 3.23 |
| CUACUUCAAACAGUCGGUCUU [Fam1A.1 aminoacylation ribozyme variant] | 0.925 | 0.563 | 1.1 | 0.819 | 1.13 | 0.838 |
| CUACUUCAAGCAAUCAGUCUG [Fam1A.1 aminoacylation ribozyme variant] | 0.615 | 2.25 | 0.772 | 0.786 | 0.698 | 5.21 |
| UCACACUUCAAGCAAACGGUC [Fam1B.1 aminoacylation ribozyme variant] | 0.682 | 0.586 | 0.639 | 0.792 | 0.506 | 0.679 |
| GUUCACCUAGGUGAUCGGGUG [Fam2.2 aminoacylation ribozyme variant] | 3.88 | 4.84 | 3.88 | 3.88 | 4.25 | 21 |
| AUUCACCUAGGUCAUCGGAAG [Fam2.2 aminoacylation ribozyme variant] | 0.562 | 0.705 | 0.622 | 0.782 | 0.541 | 0.472 |
| AUUACCCUGGCGAUCGAGUGA [Fam2.1 aminoacylation ribozyme variant] | 4.06 | 4.59 | 2.12 | 2.69 | 4.77 | 24.3 |
| CCACACUUUAAGCAAUCAGUC [Fam1B.1 aminoacylation ribozyme variant] | 0.541 | 0.749 | 0.76 | 0.874 | 0.69 | 1.03 |
| AUUACCCUGGUCACCGAAUGA [Fam2.1 aminoacylation ribozyme variant] | 1.22 | 0.91 | 0.992 | 1.15 | 1.31 | 0.595 |
| CUACAUCAAACAAUCGGUCUC [Fam1A.1 aminoacylation ribozyme variant] | 0.683 | 0.882 | 0.575 | 0.779 | 0.532 | 1.64 |
| CCGCACUACAAGCAAUCGGUC [Fam1B.1 aminoacylation ribozyme variant] | 0.932 | 1.36 | 1.33 | 1.32 | 1.02 | 1.55 |
| AAGUUUGCAUAUAGUCGCAAG [Fam3.1 aminoacylation ribozyme variant] | 0.636 | 0.826 | 0.762 | 0.961 | 0.744 | 0.843 |

| Sequence | self-aminoacylation (biotinyl-Met-oxazolone) | self-aminoacylation (biotinyl-Trp-oxazolone) | self-aminoacylation (biotinyl-Ile-oxazolone) | self-aminoacylation (biotinyl-Val-oxazolone) | self-aminoacylation (biotinyl-Leu-oxazolone) | self-aminoacylation (biotinyl-Phe-oxazolone) |
| --- | --- | --- | --- | --- | --- | --- |
| AUUACCCGGGCCAUCGAGUGA [Fam2.1 aminoacylation ribozyme variant] | 8.49 | 8.23 | 4.18 | 5.47 | 10.1 | 41.7 |
| AUUCACAUAGGUCAUUGGGUG [Fam2.2 aminoacylation ribozyme variant] | 4.35 | 4.51 | 2.74 | 3.23 | 5.11 | 29.1 |
| AUUACCCUCGUCAUCGAGUAA [Fam2.1 aminoacylation ribozyme variant] | 0.866 | 0.978 | 0.904 | 1.02 | 0.985 | 0.716 |
| ACUCACCUAGGUCAUUGGGUG [Fam2.2 aminoacylation ribozyme variant] | 2.35 | 3.78 | 2.31 | 2.56 | 2.91 | 14.3 |
| AUUCCCCUGGUCACCGAGUGA [Fam2.1 aminoacylation ribozyme variant] | 9.9 | 12.6 | 5.93 | 5.07 | 11.1 | 73.1 |
| AUUCACCUAGGGCAUCGGAUG [Fam2.2 aminoacylation ribozyme variant] | 0.506 | 0.646 | 0.923 | 0.873 | 0.894 | 0.411 |
| UAUUUUGCUAAUAGUCGCAAG [Fam3.1 aminoacylation ribozyme variant] | 1.65 | 1.47 | 1.75 | 1.52 | 1.31 | 1.99 |
| AAUGCCCUGGUCAUCGAGUGA [Fam2.1 aminoacylation ribozyme variant] | 9.57 | 11.8 | 4.61 | 5.85 | 9.96 | 33.9 |
| CAACUUCAAACAAUCGGUAUG [Fam1A.1 aminoacylation ribozyme variant] | 1.31 | 21 | 1.21 | 1.04 | 1.61 | 33.3 |
| AUUACACUGGUCCUCGAGUGA [Fam2.1 aminoacylation ribozyme variant] | 5.17 | 5.79 | 2.72 | 2.32 | 4.8 | 23.4 |
| AUUCACCUCGGUCUUCGGGUG [Fam2.2 aminoacylation ribozyme variant] | 3.71 | 4.87 | 3.77 | 4.01 | 6.72 | 33 |
| AUUCAGCAAGGUCAUCGGGUG [Fam2.2 aminoacylation ribozyme variant] | 6.23 | 7 | 4.51 | 4.9 | 7.63 | 47.9 |
| AUGACCCUGGUCAUUGAGUGA [Fam2.1 aminoacylation ribozyme variant] | 7.27 | 7.49 | 3.61 | 3 | 7.74 | 49.8 |
| AUGUUUGCUAAUAGCCGCAAG [Fam3.1 aminoacylation ribozyme variant] | 0.997 | 1.36 | 1.28 | 1.04 | 1.14 | 2.62 |
| CUACUUCAGACAAUCGAUCUG [Fam1A.1 aminoacylation ribozyme variant] | 0.542 | 0.493 | 0.669 | 0.634 | 0.477 | 0.994 |
| AAGUUCGCUUAUAGUCGCAAG [Fam3.1 aminoacylation ribozyme variant] | 2.03 | 2.23 | 1.86 | 1.5 | 1.84 | 1.99 |
| AAGUAUGCUAAUAGUAGCAAG [Fam3.1 aminoacylation ribozyme variant] | 1.22 | 0.882 | 1.53 | 1.46 | 1.54 | 1.46 |
| CUACUUAAAACAAUCGCUCUG [Fam1A.1 aminoacylation ribozyme variant] | 0.706 | 0.462 | 0.623 | 0.727 | 0.481 | 0.52 |
| CUACUUCAAACCAUCGGUUUG [Fam1A.1 aminoacylation ribozyme variant] | 0.74 | 0.624 | 0.815 | 1.03 | 0.895 | 0.597 |
| AAGAUUGCUCAUAGUCGCAAG [Fam3.1 aminoacylation ribozyme variant] | 1.56 | 2.09 | 1.45 | 1.62 | 1.95 | 1.91 |
| AGUCACCUACGUCAUCGGGUG [Fam2.2 aminoacylation ribozyme variant] | 4.95 | 5.27 | 3.49 | 4.21 | 6.83 | 32.4 |
| AUCCACCUAGGUCAUCAGGUG [Fam2.2 aminoacylation ribozyme variant] | 1.74 | 2.64 | 1.51 | 1.74 | 1.82 | 4.11 |
| AUUACCCUGGUCAACGAGUGG [Fam2.1 aminoacylation ribozyme variant] | 1.49 | 1.78 | 1.04 | 1.09 | 1.38 | 2.19 |
| AUUACCGUGGUCAUAGAGUGA [Fam2.1 aminoacylation ribozyme variant] | 7.8 | 7.99 | 3.67 | 3.97 | 6.95 | 35.7 |
| AUUACCCUGGUCAUUGAGUGU [Fam2.1 aminoacylation ribozyme variant] | 4.42 | 5.6 | 2.42 | 2.78 | 4.72 | 18.9 |
